Test [1] has as its target T1, Low Density Lipoprotein Receptor (LDLR), recombinant (UniProt P01130 22-788). Kind of test: SPR; HBS + 0.05% P20. Background: In SPR one partner is held on a chip, and binding of the other changes the refractive index at the surface.
The target of test [2] is T1, Low Density Lipoprotein Receptor …. Kind of test: SPR; HBS + 0.005% P20, peptide.
Test [3] shares this target. Kind of test: SPR; HBS + 0.005% P20, DMPC complex.
Test [4] has the same target. Kind of test: SPR; HBS + 0.005% P20, DMPC complex. The source holds these as a separate data set.
For test [5] the target is unchanged. Kind of test: SPR; HBS + 0.005% P20, peptide. This is another data set of the same source.
The target in a further test is T-077. The test can be described thus: SPR; HBS + 0.005% P20, DMPC complex.
The target in the next test is T-050. The test can be described thus: SPR; HBS + 0.05% P20.
The target of a further test is T-060. The test can be described thus: SPR; HBS + 0.05% P20.
A further test has as its target T-053. Kind of test: SPR; HBS + 0.05% P20.
For another test, the target named is T-071. The test can be described thus: SPR; HBS + 0.005% P20, DMPC complex.
The target of the next test is T-119. Kind of test: SPR; HBS + 0.005% P20, peptide.

Here are results for 33 molecules from US20260115250A1 (published 2026).

Changes are numbered by the printed parent chain.

One may read the Kd as the constant that tells how readily two partners part at equilibrium. Regarding EELRVRLASHLRKLRKRLLR [T-074], the Kd amounted to 2.43 µM in [1], 2.37 µM in [2] and 77 µM in [3].

B1: T-120 (peptide)
peptide: DVKRLLKELTEAMAELARKAEDIRGNLDQYFRKVFAMLGQSTEELRVRLASHLRKLRKRLLRDADDLQKRLAVYQA
Turning to B1, the Kd in [1] came out at 11.8 µM; in [2], 0.8 µM.

B2: T-068 (peptide)
peptide: MEDVRGRLVQYRGEVQAMLGQSTEELRVRLASHLRKLRKRLLRDADDLQKRLAVYQA
Regarding B2, the Kd in test [1] amounted to 1.98 µM; in test [4], 0.66 µM; in [5] it was 1.48 µM.

B3: T-116 (peptide)
peptide: DAWERFRALFKELADYFRLGQSTEELRVRLASHLRKLRKRLLRDADDLQKRLAVYQA
Regarding B3, the results for the Kd in test [1], in test [2] and in test [3] were 1.21 µM, 4.53 µM and 0.28 µM, respectively.

B4: T-118 (peptide)
peptide: LVARLLKELTAAMARLGRDAEDIRGNLFQYFDEVWAMLGQSTEELRVRLASHLRKLRKRLLRDADDLQKRLAVYQA
In the case of B4, the Kd is 2.72 µM in test [1], 0.32 µM in test [2] and 94.3 µM in test [3].

B5: T-069 (peptide)
peptide: VRGRLVQYRGEVQAMLGQSTEELRVRLASHLRKLRKRLLRDADDLQKRLAVYQA
With B5, the Kd worked out at 2.39 µM in test [1], 0.56 µM in test [4] and 1.12 µM in test [5].
Take HLRKLRKRLLRSLVSQYFQTVTDYGKDL [T-109]: the figures for the Kd in [1], in [2] and in test [3] were 1.2 µM, 3.15 µM and 1.05 µM, respectively.
In the case of HLRKLRKRLLRSLVSQYRQTVTDYGKDL [T-110], the Kd in [1] stood at 1.15 µM; in test [2], 2.97 µM; in [3], 1.2 µM.

B6: T-112 (peptide)
peptide: YKDFGERVERALGRQLEMLGQSTEELRVRLASHLRKLRKRLLRDADDLQKRLAVYQA
For the molecule B6, the values for the Kd in [1], in test [2] and in test [3] were 0.72 µM, 1.14 µM and 0.17 µM, respectively.

B7: T-114 (peptide)
peptide: B6 peptide with Y1L, E9A, G13R, R14E, L16F, M18D
B7: the Kd in [1] stood at 1.27 µM; in test [2], 2.7 µM; in [3] it was 0.17 µM.

B8: T-113 (peptide)
peptide: B6 peptide with Y1W, G13R, R14E, L16F, M18D
On to B8, for which the equilibrium dissociation constant (Kd) in test [1] worked out at 1.82 µM; in [2], 1.44 µM; in test [3], 0.29 µM.
Consider HLRKLRKRLLRDGDKLQKRLAEYQARAKEAFDR [T-052], for which the results for the Kd in test [1], in test [4] and in test [5] were 1.75 µM, 202 µM and 1.18 µM, respectively.
On to HLRKLRKRLLRDGDKLQDRLAEYQARAKEAFDR [T-040], for which the results for the Kd in test [1] and in [5] were 5.54 µM and 882 µM, respectively.
Regarding HLRKLRKRLLRDADDLQKRLAEYQARAKEAFDR [T-064], the Kd in [1] turned out to be 6.81 µM.
In the case of HLRKLVKRLFRDGDKLQDRLAEYQARAKEAFDR [T-059], the Kd turned out to be 7.27 µM in test [1] and 7.72 µM in test [5].
For HLRKLRKRLLRDGDKLYDRLAEYYARAKEAFDR [T-062], the Kd in test [1] amounted to 2.23 µM; in test [4], 52.9 µM; in test [5], 9.36 µM.
Take HLRKLRKRLLRDGDKLQDRLAEYQARAREAFDR [T-055]: in test [1], the Kd was 5.09 µM.
Regarding HLRRLRRRLLRDGDKLQDRLAEYQARAKEAFDR [T-041], the dissociation constant Kd in test [1] came out at 7.49 µM; in [5], 701 µM.
RSGADALESALKELKRFIREWT [T-101]: the Kd in test [2] is 11.7 µM.
Regarding HLRKLVKRLLRSLVSQYRQTVTDYGEDL [T-111], the Kd in [1] was 1.06 µM; in test [2], 2.98 µM; in [3], 0.46 µM.
On to LASHLRKLRKRLLRDADDLQKRLAVYQA [T-044], for which the Kd in test [1] turned out to be 7.97 µM; in test [4], 1160 µM.
As for LVQYRGEVQAMLGQSTEELRVRLASHLRKLRKRLLRDADDLQKRLAVYQA [T-070], the Kd stood at 0.68 µM in [4] and 1.38 µM in test [5].
In the case of LASHLRKLRKRLLRDADDLQKRLAVYQAGAREGAER [T-046], the values for the Kd in test [1], in test [4] and in [5] were 3.56 µM, 56.3 µM and 6.72 µM, respectively.
Consider LARHLRKLRKRLARDADDLQKRLAVYQAGAREGAER [T-047], for which the Kd in test [1] amounted to 3.26 µM.
On the same count and under the same terms, next, LARHLRKLRKRLARDGDKLQDRLAEYQARAKEAFDR [T-049]: 3.26 µM.
For LASHLRKLRKRLLRDGDKLQDRLAEYQARAKEAFDR [T-048], the Kd in test [1] amounted to 5.24 µM; in test [4] it was 666 µM.

B9: T-117 (peptide)
peptide: RSGADALESALKELKRFIREWTLGQSTEELRVRLASHLRKLRKRLLRDADDLQKRLAVYQA
For the molecule B9, the results for the Kd in test [1], in [2] and in test [3] were 4.49 µM, 0.4 µM and 0.01 µM, respectively.
As to LARHLRKLRKRLARSLVSQYFQTVTDYGKDLM [T-066], the Kd in test [1] turned out to be 2.42 µM; in test [4], 0.11 µM; in [5] it was 2.06 µM.
Take LASHLRKLRKRLLRSLVSQYFQTVTDYGKDLM [T-065]: the Kd was 0.75 µM in [1], 0.18 µM in [4] and 1.07 µM in test [5].

B10: T-115 (peptide)
peptide: DHINKVQRKVTHEIERLFLGQSTEELRVRLASHLRKLRKRLLRDADDLQKRLAVYQA
As to B10, the Kd in test [1] turned out to be 2.81 µM; in test [2], 0.42 µM; in test [3] it was 0.21 µM.

B11: LDLR (receptor)
chain: not shown
Consider B11, for which the equilibrium dissociation constant (Kd) turned out to be 189 µM with T-077; 528 µM in the test with T-050; 150 µM with T-060; 122 µM with T-053; 348 µM with T-071; 2.31 µM with T-119.
Take DAWERFRALFKELADYFR [T-087]: the Kd in test [2] is 2.27 µM.
LASHLRKLRKRLLR [T-072]: the Kd in [1] was determined as 4.85 µM; in [2], 8.27 µM.
